Measurements taken from paper PMC9011732.

Experiments:
[1] = target: monomeric wild-type RBD (319-541) of the SARS-CoV-2 spike (S)-protein (SARS-CoV-2 (Wuhan-Hu-1 isolate)) (UniProt P0DTC2); assay: SEC
[2] = target: tRBD-TA, truncated RBD (319-537) with T323 mutated to alanine (SARS-CoV-2 (Wuhan-Hu-1 isolate)) (UniProt P0DTC2); assay: SEC

Question: How did the proportion of dimer in the preparation [1] turn out when “monomeric wild-type RBD (319-541) of the SARS-CoV-2 spike (S)-protein (from UniProt P0DTC2 319-541) (domain or fragment)” was run?
Answer: The proportion of dimer in the preparation was 20 to 25%.

Question: And the stoichiometry N [1]?
Answer: Its stoichiometry N is 2.

Question: For “tRBD-TA, truncated RBD (319-537) with T323 mutated to alanine (from UniProt P0DTC2 319-537) (domain or fragment)”, which percent of the protein dimerized after 7 days at 25°C [2] is on record?
Answer: The percent of the protein dimerized after 7 days at 25°C was 10%.

Question: And the proportion of dimer in the preparation [2]?
Answer: The proportion of dimer in the preparation was 25 to 28%.
